Source: patent publication US20230138315A1 (JIANGSU HENGRUI MEDICINE, published 2023)
Where a chain is given by its changes, count along the chain named. Numbers in names are those of the source.

B1: P3G (antibody, human IgG4 S228P, kappa, V domains shown)
VH: QVQLVQSGAEVKKPGASVKVSCKSSGYTFTDYYLHWLRQAPGQGPEWMGWISPNSGGTSYAQKFQGRVTMTRDTSISTAYMELSSLRSDDTAVYYCARDIATLGNFFTYGMDVWGQGTTVTVSS
VL: DIQLTQSPSSLSASVGDRVTITCRASQGIRNDLGWYQQKPGKAPKLLIYAASSLQSGVPSRFSGSGSGTDFTLTISSLQPEDFATYYCQQSYSSWTFGQGTKVEIKR
notes: also called anti-ANGPTL3 antibody P3G; P3 (variable regions)
B2: P8G (antibody, human IgG4 S228P, kappa, V domains shown)
VH: QVQLVQSGAEVKKPGASVKVSCKASGYTFTSYDINWVRQAPGQGLEWVGLINPRDDSTSYAQKFQGRVTMTRDTSTSTMYMELSSLRSEDTAVYFCARDLGSIREVLYYGMDVWGQGTTVTVSS
VL: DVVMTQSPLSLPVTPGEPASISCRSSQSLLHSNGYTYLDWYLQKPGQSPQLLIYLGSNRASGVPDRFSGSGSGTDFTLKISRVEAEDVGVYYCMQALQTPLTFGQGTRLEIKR
notes: also called anti-ANGPTL3 antibody P8G; P8 (variable regions)
B3: P8BG (antibody, human IgG4 S228P, kappa, V domains shown)
VH: B2 VH with D55E
VL: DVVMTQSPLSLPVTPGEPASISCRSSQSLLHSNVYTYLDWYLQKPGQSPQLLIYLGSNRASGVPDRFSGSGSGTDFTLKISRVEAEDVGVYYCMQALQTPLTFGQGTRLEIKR
notes: also called anti-ANGPTL3 antibody P8BG; P8B (variable regions)

How the values were obtained:
[1] = molecular target: T1, rat ANGPTL3(17-455)-His (rat, biotin-labelled in the ELISA and HTRF assays (sites not given)); assay: cell-based or functional assay
T1 chain: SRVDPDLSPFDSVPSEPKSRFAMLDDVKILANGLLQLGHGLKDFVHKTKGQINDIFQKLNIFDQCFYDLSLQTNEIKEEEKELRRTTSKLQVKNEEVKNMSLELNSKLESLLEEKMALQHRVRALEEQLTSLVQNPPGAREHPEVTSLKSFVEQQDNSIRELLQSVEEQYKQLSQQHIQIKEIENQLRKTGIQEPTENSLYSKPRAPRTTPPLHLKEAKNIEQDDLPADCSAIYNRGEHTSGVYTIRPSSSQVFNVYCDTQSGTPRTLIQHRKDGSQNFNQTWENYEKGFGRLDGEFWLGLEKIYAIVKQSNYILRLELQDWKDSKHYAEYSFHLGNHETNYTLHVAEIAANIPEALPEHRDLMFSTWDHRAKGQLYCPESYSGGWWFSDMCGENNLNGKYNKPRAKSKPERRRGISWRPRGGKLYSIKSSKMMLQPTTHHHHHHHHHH

[2] = molecular target: T2, mouse ANGPTL3(17-455)-His (mouse, UniProt Q9R182 17-455, biotin-labelled in the ELISA and HTRF assays (sites not given)); assay: cell-based or functional assay
T2 sequence: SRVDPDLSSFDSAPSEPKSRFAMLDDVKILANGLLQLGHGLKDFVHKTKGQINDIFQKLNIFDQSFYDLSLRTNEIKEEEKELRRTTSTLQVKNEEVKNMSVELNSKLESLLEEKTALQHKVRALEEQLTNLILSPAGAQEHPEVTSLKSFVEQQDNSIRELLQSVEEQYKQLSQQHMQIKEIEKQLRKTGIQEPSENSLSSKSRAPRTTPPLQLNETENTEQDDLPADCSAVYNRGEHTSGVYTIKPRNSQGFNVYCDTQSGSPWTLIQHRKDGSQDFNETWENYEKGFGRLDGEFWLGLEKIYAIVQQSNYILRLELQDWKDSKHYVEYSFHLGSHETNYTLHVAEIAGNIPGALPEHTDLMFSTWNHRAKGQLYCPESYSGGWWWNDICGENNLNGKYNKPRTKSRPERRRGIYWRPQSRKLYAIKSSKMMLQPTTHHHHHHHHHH

[3] = molecular target: T3, cynomolgus monkey ANGPTL3(17-460)-His (cynomolgus monkey, UniProt Q9Y5C1 17-460 (human entry), biotin-labelled in the ELISA and HTRF assays (sites not given)); assay: cell-based or functional assay
T3 chain: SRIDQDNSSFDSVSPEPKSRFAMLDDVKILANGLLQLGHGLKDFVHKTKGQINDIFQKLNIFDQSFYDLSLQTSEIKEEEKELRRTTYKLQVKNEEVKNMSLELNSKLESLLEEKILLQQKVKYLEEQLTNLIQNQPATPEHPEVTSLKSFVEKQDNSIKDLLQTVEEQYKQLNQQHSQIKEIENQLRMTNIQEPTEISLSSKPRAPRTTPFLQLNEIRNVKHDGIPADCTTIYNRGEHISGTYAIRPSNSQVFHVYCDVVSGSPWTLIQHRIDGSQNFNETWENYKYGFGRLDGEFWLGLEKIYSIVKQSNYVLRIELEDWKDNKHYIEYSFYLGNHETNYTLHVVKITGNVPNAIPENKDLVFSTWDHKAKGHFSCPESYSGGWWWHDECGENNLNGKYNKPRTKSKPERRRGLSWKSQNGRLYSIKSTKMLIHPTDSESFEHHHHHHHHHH

[4] = molecular target: T4, human ANGPTL3(17-170)-mFc (human); assay: ELISA; human ANGPTL3(17-170)-mFc captured by coated goat anti-mouse IgG
T4 construct: also called fusion protein of the extracellular region of human ANGPTL3 (17-170) and the mouse IgG2aFc fragment
T4 chain: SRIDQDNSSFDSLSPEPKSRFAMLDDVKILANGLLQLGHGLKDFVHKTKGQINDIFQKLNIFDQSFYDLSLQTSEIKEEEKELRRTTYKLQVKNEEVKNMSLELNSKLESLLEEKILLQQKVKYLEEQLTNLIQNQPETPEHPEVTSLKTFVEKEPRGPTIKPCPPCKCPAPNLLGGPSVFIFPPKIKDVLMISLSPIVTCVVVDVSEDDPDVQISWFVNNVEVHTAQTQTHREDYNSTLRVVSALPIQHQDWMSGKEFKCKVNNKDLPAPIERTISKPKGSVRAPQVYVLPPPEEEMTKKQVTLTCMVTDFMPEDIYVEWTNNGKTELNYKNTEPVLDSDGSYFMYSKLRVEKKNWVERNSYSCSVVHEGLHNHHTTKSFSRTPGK
Experimental: The binding activity of the anti-ANGPTL3 antibody to the ANGPTL3 antigen was tested by an ELISA assay. The ANGPTL3 protein (human ANGPTL3(17-170)-mFc) was immobilized on a 96-well microplate by binding to the goat anti-mouse IgG coated on the microplate, and the binding activity of the antibody to the ANGPTL3 was determined according to the intensity of the signal after the antibody was added.
Goat anti-mouse IgG (Sigma, M3534-1ML) was diluted to a concentration of 2 μg/mL with PBS buffer (Shanghai BasalMedia, B320, pH 7.4), added to a 96-well microplate (Corning, CLS3590-100EA) at 50 μL/well, and then incubated in an incubator at 37° C. for 3 h or incubated at 4° C. overnight (16-18 h). After the liquid was discarded, a PBS-diluted 5% skim milk (BD, 232100) blocking solution was added at 250 μL/well, and the mixture was incubated in an incubator at 37° C. for 3 h or incubated at 4° C. overnight (16-18 h) for blocking. After the blocking was finished, the blocking solution was discarded and the plate was washed 3 times with PBST buffer (pH 7.4 PBS containing 0.05% Tween-20), and then human ANGPTL3(17-170)-mFc (with sequence set forth in SEQ ID NO: 3) diluted to 0.5 μg/mL with a sample diluent (pH 7.4 PBS containing 1% BSA) was added at 50 μL/well. The mixture was incubated in an incubator at 37° C. for 2 h. After the incubation was finished, the reaction solution in the microplate was discarded. The plate was washed 3 times with PBST, and then a test antibody that was diluted with a sample diluent to different concentrations was added at 50 μL/well. The mixture was incubated in an incubator at 37° C. for 2 h. After the incubation was finished, the plate was washed 3 times with PBST, and a goat anti-human secondary antibody (Jackson Immuno Research, 109-035-003) that was diluted with the sample diluent was added at 50 μL/well. The mixture was incubated at 37° C. for 1 h.

Binder	IC50 of blocking the inhibition of bovine LPL enzyme activity by ANGPTL3 [1]	IC50 of blocking the inhibition of bovine LPL enzyme activity by ANGPTL3 [2]	IC50 of blocking the inhibition of bovine LPL enzyme activity by ANGPTL3 [3]	EC50 [4]
B1	66.5 nM	168 nM	42.4 nM	2.48 nM
B2				0.361 nM
B3	132 nM	41.5 nM	53.6 nM	0.172 nM
